Measured values reported in PMC10331486, “Characterization of an evolutionarily distinct bacterial ceramide kinase from Caulobacter crescentus” (The Journal of Biological Chemistry, 2023).
Values belong to the molecule of their own block, whether it stands above or below them.

What was measured:
[1] = molecular target: T1, CpgB (CCNA_01218), bacterial ceramide kinase (Caulobacter vibrioides, UniProt A0A0H3C600); assay: NBD-ceramide kinase assay, TLC fluorescence imaging; format: biochemical; settings: read-out: % inhibition at 300 nM
T1 construct: full-length gene, N-terminal His tag (pET28a NdeI/EcoRI), expressed in E. coli BL21(DE3), HisTrap purified, soluble; tag removal not mentioned
T1 sequence (A0A0H3C600 1-330): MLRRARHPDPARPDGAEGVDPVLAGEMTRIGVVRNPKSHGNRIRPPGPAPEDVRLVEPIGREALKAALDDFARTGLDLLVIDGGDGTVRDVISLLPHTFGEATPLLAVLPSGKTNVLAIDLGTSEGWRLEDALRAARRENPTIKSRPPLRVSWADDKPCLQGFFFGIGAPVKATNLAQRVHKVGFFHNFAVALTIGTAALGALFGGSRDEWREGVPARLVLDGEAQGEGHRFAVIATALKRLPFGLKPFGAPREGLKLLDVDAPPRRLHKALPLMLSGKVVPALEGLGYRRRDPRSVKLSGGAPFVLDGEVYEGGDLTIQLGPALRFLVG

[2] = substrate: Nc1ncnc2c1ncn2[C@@H]1O[C@H](COP(=O)(O)OP(=O)(O)OP(=O)(O)O)[C@@H](O)[C@H]1O; assay: purified protein; settings: 160 μM NBD-C6-ceramide fixed, 15 mM Mg2+, 20 mM Hepes pH 7.4, 30 °C
[3] = substrate: CCCCCCCCCCCCC/C=C/[C@@H](O)[C@H](CO)NC(=O)CCCCCNc1ccc([N+](=O)[O-])c2nonc12; assay: NBD-ceramide kinase assay, TLC fluorescence imaging; format: biochemical, Caulobacter vibrioides; settings: 1 mM ATP fixed, 15 mM Mg2+, 20 mM Hepes pH 7.4, 30 °C, labelled compound (fluorescent NBD)

inhibition at 0.3 µM [1]: 20 to 25%
Molecule: O=C(Nc1nc2ccc(NC(=O)C34CC5CC(CC(C5)C3)C4)cc2s1)c1ccccc1 [NVP-231]

B1: CpgB (CCNA_01218), bacterial ceramide kinase (Caulobacter vibrioides NA1000) (protein)
chain: T1 sequence (A0A0H3C600 1-330)
notes: full-length gene, N-terminal His tag (pET28a NdeI/EcoRI), expressed in E. coli BL21(DE3), HisTrap purified, soluble; tag removal not mentioned
Km [2]: 290 ± 70 µM | Km [3]: 19.2 ± 5.5 µM
